From patent US20160264649A1

Assays:
Experiment in all cases: cell-based or functional assay
[1] = target: HIV-1 Env of isolate 92UG001 (subtype D) (HIV-1)
[2] = target: HIV-1 Env of isolate 92UG005 (subtype D) (HIV-1)
[3] = target: HIV-1 Env of isolate 92UG024 (subtype D) (HIV-1)
[4] = target: HIV-1 Env of isolate 92UG046 (subtype D) (HIV-1)
[5] = target: HIV-1 Env of isolate 92UG114 (subtype D) (HIV-1)
[6] = target: HIV-1 Env of isolate 98CN006 (subtype CRF08_BC) (HIV-1)
[7] = target: HIV-1 Env of isolate 98CN009 (subtype CRF07_BC) (HIV-1)
[8] = target: HIV-1 Env of isolate MGRM-D-001 (subtype D) (HIV-1)
[9] = target: HIV-1 Env of isolate MGRM-D-002 (subtype D) (HIV-1)
[10] = target: HIV-1 Env of isolate MGRM-D-003 (subtype D) (HIV-1)
[11] = target: HIV-1 Env of isolate MGRM-D-004 (subtype D) (HIV-1)
[12] = target: HIV-1 Env of isolate MGRM-D-005 (subtype D) (HIV-1)
[13] = target: HIV-1 Env of isolate MGRM-D-008 (subtype D) (HIV-1)
[14] = target: HIV-1 Env of isolate MGRM-D-011 (subtype D) (HIV-1)
[15] = target: HIV-1 Env of isolate MGRM-D-012 (subtype D) (HIV-1)
[16] = target: HIV-1 Env of isolate MGRM-D-013 (subtype D) (HIV-1)
[17] = target: HIV-1 Env of isolate MGRM-D-014 (subtype D) (HIV-1)
[18] = target: HIV-1 Env of isolate MGRM-D-016 (subtype D) (HIV-1)
[19] = target: HIV-1 Env of isolate MGRM-D-018 (subtype D) (HIV-1)
[20] = target: HIV-1 Env of isolate MGRM-D-019 (subtype D) (HIV-1)
[21] = target: HIV-1 Env of isolate MGRM-D-020 (subtype D) (HIV-1)
[22] = target: HIV-1 Env of isolate MGRM-D-021 (subtype D) (HIV-1)
[23] = target: HIV-1 Env of isolate MGRM-D-022 (subtype D) (HIV-1)
[24] = target: HIV-1 Env of isolate MGRM-D-024 (subtype D) (HIV-1)
[25] = target: HIV-1 Env of isolate MGRM-D-026 (subtype D) (HIV-1)
[26] = target: HIV-1 Env of isolate MGRM-D-028 (subtype D) (HIV-1)
[27] = target: HIV-1 Env of isolate MGRM-D-029 (subtype D) (HIV-1)
[28] = target: HIV-1 Env of isolate MGRM-F1-004 (subtype F) (HIV-1)
[29] = target: HIV-1 Env of isolate MGRM-F1-006 (subtype F) (HIV-1)
[30] = target: HIV-1 Env of isolate MGRM-F1-008 (subtype F) (HIV-1)
[31] = target: HIV-1 Env of isolate MGRM-F1-010 (subtype F) (HIV-1)
[32] = target: HIV-1 Env of isolate MGRM-F1-012 (subtype F) (HIV-1)
[33] = target: HIV-1 Env of isolate MGRM-F1-013 (subtype F) (HIV-1)
[34] = target: HIV-1 Env of isolate MGRM-F1-014 (subtype F) (HIV-1)
[35] = target: HIV-1 Env of isolate MGRM-F1-015 (subtype F) (HIV-1)
[36] = target: HIV-1 Env of isolate MGRM-F1-016 (subtype F) (HIV-1)
[37] = target: HIV-1 Env of isolate MGRM-F1-017 (subtype F) (HIV-1)
[38] = target: HIV-1 Env of isolate MGRM-F1-018 (subtype F) (HIV-1)
[39] = target: HIV-1 Env of isolate MGRM-F1-020 (subtype F) (HIV-1)
[40] = target: HIV-1 Env of isolate MGRM-F1-021 (subtype F) (HIV-1)
[41] = target: HIV-1 Env of isolate MGRM-F1-022 (subtype F) (HIV-1)
[42] = target: HIV-1 Env of isolate MGRM-F1-023 (subtype F) (HIV-1)
[43] = target: HIV-1 Env of pseudovirus isolate MGRM-G-001 (subtype G) (HIV-1)
[44] = target: HIV-1 Env of pseudovirus isolate MGRM-G-004 (subtype G) (HIV-1)
[45] = target: HIV-1 Env of pseudovirus isolate MGRM-G-006 (subtype G) (HIV-1)
[46] = target: HIV-1 Env of pseudovirus isolate MGRM-G-009 (subtype G) (HIV-1)
[47] = target: HIV-1 Env of pseudovirus isolate MGRM-G-011 (subtype G) (HIV-1)
[48] = target: HIV-1 Env of pseudovirus isolate MGRM-G-013 (subtype G) (HIV-1)
[49] = target: HIV-1 Env of pseudovirus isolate MGRM-G-014 (subtype G) (HIV-1)
[50] = target: HIV-1 Env of pseudovirus isolate MGRM-G-015 (subtype G) (HIV-1)
[51] = target: HIV-1 Env of pseudovirus isolate MGRM-G-016 (subtype G) (HIV-1)
[52] = target: HIV-1 Env of pseudovirus isolate MGRM-G-017 (subtype G) (HIV-1)
[53] = target: HIV-1 Env of pseudovirus isolate MGRM-G-019 (subtype G) (HIV-1)
[54] = target: HIV-1 Env of pseudovirus isolate MGRM-G-024 (subtype G) (HIV-1)
[55] = target: HIV-1 Env of pseudovirus isolate MGRM-G-025 (subtype G) (HIV-1)
[56] = target: HIV-1 Env of pseudovirus isolate MGRM-G-027 (subtype G) (HIV-1)
[57] = target: HIV-1 Env of pseudovirus isolate MGRM-G-028 (subtype G) (HIV-1)
[58] = target: envelope of aMLV pseudovirus (negative control)

B1: PGT-131 (antibody, V domains shown)
VH: QVQLQESGPGLVKPSETLSLTCTVSGDSINTGHHYWGWVRQVPGKGPEWIAHIHYNTAVLHNPALKSRVTISIFTLKNLITLSLSNVTAADTAVYFCVRSGGDILYYIEWQKPHWFYPWGPGILVTVSS
VL: QSALTQPPSASGSLGQSLTISCSGTGSDIGSWNFVSWYQQFPGRAPNLIIFEVNRRRSGVPDRFSGSKSGNTASLTVSGLRSEDEAEYFCSSLSGRWDIVFGGGTKVTVL
With B1 the IC50 (neutralization) [1] was over 50 µg/mL, the IC50 (neutralization) [2] was 0.854 µg/mL and the IC50 (neutralization) [3] was over 50 µg/mL. For the same binder, the IC50 (neutralization) [4] was over 50 µg/mL, the IC50 (neutralization) [5] was over 50 µg/mL and the IC50 (neutralization) [6] was 35.3 µg/mL. The IC50 (neutralization) [7] was 4.05 µg/mL, the IC50 (neutralization) [8] was over 50 µg/mL and the IC50 (neutralization) [9] was 11.2 µg/mL. The IC50 (neutralization) [10] was 19.6 µg/mL, the IC50 (neutralization) [11] was 2.01 µg/mL and the IC50 (neutralization) [12] was over 50 µg/mL. The IC50 (neutralization) [13] was over 50 µg/mL, the IC50 (neutralization) [14] was 0.756 µg/mL and the IC50 (neutralization) [15] was over 50 µg/mL. For the same binder, the IC50 (neutralization) [16] was 4.14 µg/mL, the IC50 (neutralization) [17] was 0.516 µg/mL and the IC50 (neutralization) [18] was over 50 µg/mL. It also gave an IC50 (neutralization) [19] of 0.148 µg/mL, an IC50 (neutralization) [20] of over 50 µg/mL and an IC50 (neutralization) [21] of over 50 µg/mL. The IC50 (neutralization) [22] was 0.106 µg/mL, the IC50 (neutralization) [23] was over 50 µg/mL and the IC50 (neutralization) [24] was over 50 µg/mL. The IC50 (neutralization) [25] was over 50 µg/mL, the IC50 (neutralization) [26] was over 50 µg/mL and the IC50 (neutralization) [27] was over 50 µg/mL. For the same binder, the IC50 (neutralization) [28] was 0.114 µg/mL, the IC50 (neutralization) [29] was over 50 µg/mL and the IC50 (neutralization) [30] was 2.74 µg/mL. The IC50 (neutralization) [31] was over 50 µg/mL, the IC50 (neutralization) [32] was over 50 µg/mL and the IC50 (neutralization) [33] was over 50 µg/mL. For the same binder, the IC50 (neutralization) [34] was over 50 µg/mL, the IC50 (neutralization) [35] was over 50 µg/mL and the IC50 (neutralization) [36] was over 50 µg/mL. It also gave an IC50 (neutralization) [37] of over 50 µg/mL, an IC50 (neutralization) [38] of over 50 µg/mL and an IC50 (neutralization) [39] of over 50 µg/mL. It also gave an IC50 (neutralization) [40] of over 50 µg/mL, an IC50 (neutralization) [41] of over 50 µg/mL and an IC50 (neutralization) [42] of over 50 µg/mL. For the same binder, the IC50 [43] was 0.404 µg/mL, the IC50 [44] was over 50 µg/mL and the IC50 [45] was over 50 µg/mL. It also gave an IC50 [46] of over 50 µg/mL, an IC50 [47] of over 50 µg/mL and an IC50 [48] of over 50 µg/mL. For the same binder, the IC50 [49] was 4.31 µg/mL, the IC50 [50] was over 50 µg/mL and the IC50 [51] was over 50 µg/mL. It also gave an IC50 [52] of over 50 µg/mL, an IC50 [53] of over 50 µg/mL and an IC50 [54] of 10.7 µg/mL. It also gave an IC50 [55] of 7.75 µg/mL, an IC50 [56] of 2.9 µg/mL and an IC50 [57] of 0.466 µg/mL. For the same binder, the IC50 [58] was over 50 µg/mL.
